Consider 4 molecules from patent publication US20240190999A1.

A value given as a limit tells only on which side of the number the result lay.

The target of assay [1] is biotinylated cynomolgus 4-1BB (bio.c4-1BB) (cynomolgus monkey) (UniProt A9YYE7). Kind of assay: SPR (ProteOn XPR36), biotinylated c4-1BB immobilised on GLC chip, construct as analyte.
The target is the same in assay [2]. Kind of assay: SPR (ProteOn XPR36); end of the group's range, tied to #44 by Table 15.
Assay [3] shares this target. Put plainly: SPR (ProteOn XPR36); end of the group's range, tied to #47 by Table 15.
For assay [4] the target is unchanged. Put plainly: SPR (ProteOn XPR36); told of the group, largest difference is that of #47 by Table 15.
The target is the same in assay [5]. Put plainly: SPR (ProteOn XPR36), bio.c4-1BB on NLC chip, MpA analyte; mean of triplicate.
In assay [6] the target is biotinylated human 4-1BB-Fc (bio.h4-1BB-Fc) (human) (UniProt Q07011). Put plainly: SPR (ProteOn XPR36), sequential injections; 100 nM MpA on 360 RU bio.h4-1BB-Fc on NLC chip.
For assay [7], the target named is biotinylated cynomolgus 4-1BB (bio.c4-1BB) (cynomolgus monkey) (UniProt A9YYE7). Put plainly: SPR (ProteOn XPR36), bio.c4-1BB on NLC chip, MpA analyte; mean of triplicate; apparent affinity (bivalent).

biotinylated cynomolgus 4-1BB (bio.c4-1BB) (cynomolgus monkey), sequence (A9YYE7 entry or part of it): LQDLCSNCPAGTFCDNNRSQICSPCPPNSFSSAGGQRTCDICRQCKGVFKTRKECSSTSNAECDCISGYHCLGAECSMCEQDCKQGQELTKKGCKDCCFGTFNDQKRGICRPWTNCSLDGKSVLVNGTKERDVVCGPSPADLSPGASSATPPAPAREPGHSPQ
biotinylated human 4-1BB-Fc (bio.h4-1BB-Fc) (human), sequence (Q07011 24-186 limits assumed): as the sequence (A9YYE7 entry or part of it) above, with L4P, S19N, K50R, I66T, S67P, Y69F, E75G, A149V counted along it

B1: bispecific construct #44 (designed binder)
chain: MRGSHHHHHHGSDLGEKLLVAALYGQDDEVRILLAAGADVNAKDQWGLTPLHKAALQGHLEIVEVLLKAGADVNAKDERGHTPLHWAARFGHLEIVEVLLKAGADVNAQDQKGYTPADLAALWGHEDIAEVLQKAAGSPTPTPTTPTPTPTTPTPTPTGSDLGQKLLKAAQEGQDDEVRELLKAGADVNAKDLRGITPLHVAAWQGHLEIVEVLLKAGADVNAKDSKGETPLHLAAFRGHLEIVEVLLKAGADVNAQDQQGETPADLAALAGHVDIAEVLQKLN
Consider B1, for which the Kd in assay [1] is 1.12 nM; in assay [2], 1.1 to 2.9 nM.

B2: bispecific construct #47 (designed binder)
chain: MRGSHHHHHHGSDLGEKLLVAALYGQDDEVRILLAAGADVNAKDQWGLTPLHKAALQGHLEIVEVLLKAGADVNAKDERGHTPLHWAARFGHLEIVEVLLKAGADVNAQDQKGYTPADLAALWGHEDIAEVLQKAAGSPTPTPTTPTPTPTTPTPTPTGSDLGKKLLEAARAGQDDEVRELLKAGADVNAKDTYGETPLHLAAWKGHLEIVEVLLKAGADVNAKDSIGITPLHVAAHHGHLEIVEVLLKAGADVNAKDKWGRTPLHLAALLGHLEIAEVLLKAGADVNAQDKSGKTPADLAADAGHDDIAEVLQKLN
With B2, the results for the Kd in assay [1] and in assay [3] were 2.9 nM and 1.1 to 2.9 nM, respectively. In assay [4], this molecule had a fold difference in binding affinity as compared to human 4-1BB of under 4 fold.

B3: bispecific construct #49 (designed binder)
chain: MRGSHHHHHHGSDLGEKLLVAALYGQDDEVRILLAAGADVNAKDQWGLTPLHKAALQGHLEIVEVLLKAGADVNAKDERGHTPLHWAARFGHLEIVEVLLKAGADVNAQDQKGYTPADLAALWGHEDIAEVLQKAAGSPTPTPTTPTPTPTTPTPTPTGSDLGKKLLVAANVGQDDEVRILLAAGADVNAKDYHGYTPLHHAATYGHLEIVEVLLKAGADVNAKDQTGLTPLHLAAAKGHLEIVEVLLKAGADVNAQDHHGYTPADLAAFVGHEDIAVVLQKLN
In turn, B3 had a Kd in assay [1] of 1.48 nM.

B4: Multispecific binding protein A (MpA) (designed binder)
chain: GSDLGKKLLEAARAGQDDEVRELLKAGADVNAKDYFSHTPLHLAARNGHLKIVEVLLKAGADVNAKDFAGKTPLHLAAADGHLEIVEVLLKAGADVNAQDIFGKTPADIAADAGHEDIAEVLQKAAGSPTPTPTTPTPTPTTPTPTPTGSDLGKKLLEAARAGQDDEVRELLKAGADVNAKDVLGWTPLHLAAFEGHLEIVEVLLKAGADVNAKDKKGWTPLQLAARTGHLEIVEVLLKAGADVNAKDHIGATPLHLAAWQGHPEIVEVLLKAGADVNAQDKSGKTPADLAADAGHEDIAEVLQKAAGSPTPTPTTPTPTPTTPTPTPTGSDLGQKLLKAAQEGQDDEVRELLKAGADVNAKDLRGITPLHVAAWQGHLEIVEVLLKAGADVNAKDSKGETPLHLAAFRGHLEIVEVLLKAGADVNAQDQQGETPADLAALAGHVDIAEVLQKAAGSPTPTPTTPTPTPTTPTPTPTGSDLGQKLLKAAQEGQDDEVRELLKAGADVNAKDLRGITPLHVAAWQGHLEIVEVLLKAGADVNAKDSKGETPLHLAAFRGHLEIVEVLLKAGADVNAQDQQGETPADLAALAGHVDIAEVLQKAAGSPTPTPTTPTPTPTTPTPTPTGSDLGKKLLEAARAGQDDEVRELLKAGADVNAKDYFSHTPLHLAARNGHLKIVEVLLKAGADVNAKDFAGKTPLHLAAADGHLEIVEVLLKAGADVNAQDIFGKTPADIAADAGHEDIAEVLQKAA
In the case of B4, in assay [5], the koff stood at 2.7e-05 s⁻¹ and the kon was found to be 2.1e+06 M⁻¹ s⁻¹. The molecule further yielded a Binding stoichiometry in assay [6] of 0.7. The Kd in assay [7] was 0.014 nM.
